Source: patent US12295997B2, “Prostate neoantigens and their uses” (Janssen Biotech, Inc., priority 2020, dated 2025)

Tests used:
Assay in all cases: In vitro binding of neoantigens to class I MHC (UV peptide exchange, HLA class I ELISA)
Settings in all cases: 100% = same binding as positive control peptide
[1] = biological target: HLA-A*01:01 (Homo sapiens, UniProt P04439, A114D/A174V/A182V/D101N/D185E/E176A/E190D/L180R/Q94H/R68K/S129P/T187R/V100A/V91M/W191G)
Procedure: (§1) The 9 mer peptides identified by bioinformatics analysis were analyzed for their binding propensities to 6 common HLA class I alleles (HLA-A*01:01, A*02:01, A*03:01, A*24:02, B*07:02, B*08:01). The principle of the method is briefly described below and consists of two parts, one involving exchange of peptide with a positive control induced by Ultraviolet (UV) radiation, and the second is an enzyme immunoassay to detect stable HLA-peptide and empty HLA complexes.
(§2) HLA-bound peptides are critical for the stability of the HLA complex. A conditional HLA class I complex was stabilized by an UV-labile peptide utilizing a different peptide (Pos) for each HLA (Pos: HLA-A*01:01: […](SEQ ID NO: 409), HLA-A*02:01: […] (SEQ ID NO: 410), HLA-A*03:01: […] (SEQ ID NO: 411), HLA-A*24:02: […] (SEQ ID NO: 412), HLA-B*07:02: […] (SEQ ID NO: 413), HLA-B*08:01: […] (SEQ ID NO: 414), which could be cleaved by UV irradiation when bound to the HLA molecule. Upon cleavage, the resulting peptide fragments dissociated from the HLA class I complex since their length was insufficient to bind stably to HLA. Under the conditions in which peptide cleavage was performed (neutral pH, on melting ice), the peptide-free HLA complex remained stable.
(§3) The exchange efficiency between the peptide of interest and Pos was analyzed using an HLA class I ELISA. The combined technologies allowed the identification of ligands for an HLA molecule of interest which are potentially immunogenic.
(§4) Exchange control peptide Pos was a high affinity binder to the relevant HLA class I allele while exchange control peptide Neg was a non-binder. The UV control represented UV-irradiation of conditional HLA class I complex in the absence of a rescue peptide.
(§5) The HLA class I ELISA is an enzyme immunoassay based on the detection of beta2-microglobulin (B2M) of (peptide-stabilized) HLA class I complexes. To this end streptavidin was bound onto polystyrene microtiter wells. After washing and blocking, HLA complex present in exchange reaction mixtures or ELISA controls was captured by the streptavidin on the microtiter plate via its biotinylated heavy chain. Non-bound material was removed by washing. Subsequently, horseradish peroxidase (HRP)-conjugated antibody to human B2M was added. The HRP-conjugated antibody binds only to an intact HLA complex present in the microtiter well because unsuccessful peptide exchange results in disintegration of the original UV-sensitive HLA complex upon UV illumination. In the latter case B2M was removed during the washing step. After removal of non-bound HRP conjugate by washing, a substrate solution was added to the wells. A coloured product formed in proportion to the amount of intact HLA complex present in the samples. After the reaction was terminated by the addition of a stop solution, absorbance was measured in a microtiter plate reader. The absorbance was normalized to the absorbance of an exchange control peptide (represents 100%). Suboptimal HLA binding of peptides with a moderate to low affinity for HLA class I molecules can also be detected by this ELISA technique (Rodenko, B et al. (2006) Nature Protocols 1: 1120-32).
(§6) Peptides that had 10% or greater exchange efficiency in one of the 6 HLA alleles were considered for further immunogenicity testing and analysis.
(§7) Binding of select neoepitopes to HLA-A*01:01, HLA-A*02:01, HLA-A*03:01, HLAA*24:02, HLAAB*07:02 and HLA-B*08:01 was evaluated using the assay described in Example 1. […] As a criterion for further evaluation, peptides with an exchange rate of at least 10% with the corresponding Pos peptide for at least one of the 6 HLA alleles that we considered for further evaluation. The exchange rates with the allele specific Pos peptides, of the 24 neoantigens so identified are summarized below in Table 17. Higher percentages correspond to stronger binding to the HLA allele. […]

[2] = biological target: HLA-B*08:01 (Homo sapiens, UniProt P01889, A93T/A95T/D138N/E176V/E187T/K202T/Q94N/R180D/S35A/V36M/Y33D/Y91F)
Procedure: as §1, §2, §3, §4, §5, §6, §7

[3] = biological target: HLA-B*07:02 (Homo sapiens, UniProt P01889)
Procedure: as §1, §2, §3, §4, §5, §6, §7

[4] = biological target: HLA-A*24:02 (Homo sapiens, UniProt P04439, D101N/D140Y/D185E/E176V/E190D/F33S/G103R/G107R/I119L/I121M/I306V/K335N/L105A/L180Q/L300P/N151K/N90K/Q86E/Q94H/R106L/R138H/R89G/T104I/T345S/V100E/W191G/Y123F)
Procedure: as §1, §2, §3, §4, §5, §6, §7

[5] = biological target: HLA-A*03:01 (Homo sapiens, UniProt P04439)
Procedure: as §1, §2, §3, §4, §5, §6
Binding of select neoepitopes to HLA-A*01:01, HLA-A*02:01, HLA-A*03:01, HLAA*24:02, HLAAB*07:02 and HLA-B*08:01 was evaluated using the assay described in Example 1. […] As a criterion for further evaluation, peptides with an exchange rate of at least 10% with the corresponding Pos peptide for at least one of the 6 HLA alleles that we considered for further evaluation. The exchange rates with the allele specific Pos peptides, of the 24 neoantigens so identified are summarized below in Table 17. Higher percentages correspond to stronger binding to the HLA allele.

Row | Molecule | Exchange rate with allele specific Pos peptide, HLA-A*01:01 [1] | Exchange rate with allele specific Pos peptide, HLA-B*08:01 [2] | Exchange rate with allele specific Pos peptide, HLA-B*07:02 [3] | Exchange rate with allele specific Pos peptide, HLA-A*24:02 [4] | Exchange rate with allele specific Pos peptide, HLA-A*03:01 [5]
1 | P46 (DDRNTFDIVWWCPMSRLRLALTVPPSTTTTCVTVPAWAA; listed as Homo sapiens) [Peptide P46] | 2.4% | 14.5% | 64.8% | −0.4% | 10.3%
2 | P56 (PKSEVRAKCKFSILNAK; listed as Homo sapiens) [Peptide P56] | 2.6% | 38% | 82.5% | 0.5% | 6.8%
3 | P58 (MMAEIISVHVPKILSGK; listed as Homo sapiens) [Peptide P58] | 2.5% | 5.3% |  | 0.2% | 32.5%
4 | P60 (CYLRRQKRLKCEKQPGA; listed as Homo sapiens) [Peptide P60] | 3.1% | 10.2% | 6.1% | 0.9% | 36.6%
5 | P61 (MFENGCYLGRQKRFKCE; listed as Homo sapiens) [Peptide P61] | 1.7% | 3.6% |  | 90.3% | 2.1%
6 | P73 (DSSGNLLERNSFEVRV; listed as Homo sapiens) [Peptide P73] | 2.1% | 2.6% | 8.7% | 0.5% | 3.5%
7 | P97 (GYLRMQGLMAQRLLLR; listed as Homo sapiens) [Peptide P97] | 2.5% | 2.7% | 7% | 0.1% | 39%
8 | P98: neoantigen 9 mer fragment used for PBMC stimulation (FIG. 5D) (IVWWCPMSR; listed as Homo sapiens) [Neoantigen P98] | 2.5% | 2.4% | 6.7% | −0.1% | 51.1%
9 | SLYHREKQLIAMDSAI (listed as Homo sapiens) [Neoantigen P22] | 4.4% | 3.9% |  | 0% | 4.8%
10 | YEAGMTLGEKFRVGNCKHLKMTRP (listed as Homo sapiens) [Neoantigen P82] | 1.5% | 1.4% | 12.9% | −0.1% | 58.1%
11 | YEAGMTLGGKILFFLFLLLPLSPFSLIF (listed as Homo sapiens) [Neoantigen P87] | 1.1% | 3.1% | 5% | 0.2% | 2.4%
12 | P19 (peptide, listed as Homo sapiens) WTPIPVLTRWPLPHPPPWRRATSCRMARSSPSATSGSSVRRRCSSLPSWVWNLAASTRPRSTPS | 5.2% | 14.5% | 91.3% | 0.1% | 4.1%
